# B1: rrnAP3 promoter (dsDNA)
# DNA 1: CTATGGATGACCGAACCTGGTCTTGACTCCATTGCCGGATTTGTATTAGACTGGCAGGGTCGCCCCGAAGCGGGCGGAAACAAGCAAGCGTGTTGTTTGAGAACTC
# DNA 2: GAGTTCTCAAACAACACGCTTGCTTGTTTCCGCCCGCTTCGGGGCGACCCTGCCAGTCTAATACAAATCCGGCAATGGAGTCAAGACCAGGTTCGGTCATCCATAG
# Biological target: RNAP-SigA holoenzyme (Mycobacterium tuberculosis, UniProt P9WGZ1;P9WGY9;P9WGY7;P9WGI1 1-347;1-1178;1-1316;1-528)
# Assay: EMSA; 100-200 nM RNAP, heparin
# Conditions: protein: recombinant; chain copies: 2;1;1;1; blunt
# Chain of RNAP-SigA holoenzyme (P9WGZ1 whole entry, chain 1 of 4): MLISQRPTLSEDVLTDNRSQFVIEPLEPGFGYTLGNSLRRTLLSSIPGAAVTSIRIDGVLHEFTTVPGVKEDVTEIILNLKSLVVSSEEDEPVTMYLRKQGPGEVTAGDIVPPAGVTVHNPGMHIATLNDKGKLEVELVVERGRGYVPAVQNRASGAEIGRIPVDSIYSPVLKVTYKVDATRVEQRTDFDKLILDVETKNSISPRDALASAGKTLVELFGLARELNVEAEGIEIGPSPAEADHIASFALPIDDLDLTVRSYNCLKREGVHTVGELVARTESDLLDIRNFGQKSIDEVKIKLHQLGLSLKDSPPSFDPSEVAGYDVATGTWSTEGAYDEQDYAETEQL
# Chain of RNAP-SigA holoenzyme (P9WGY9 whole entry, chain 2 of 4): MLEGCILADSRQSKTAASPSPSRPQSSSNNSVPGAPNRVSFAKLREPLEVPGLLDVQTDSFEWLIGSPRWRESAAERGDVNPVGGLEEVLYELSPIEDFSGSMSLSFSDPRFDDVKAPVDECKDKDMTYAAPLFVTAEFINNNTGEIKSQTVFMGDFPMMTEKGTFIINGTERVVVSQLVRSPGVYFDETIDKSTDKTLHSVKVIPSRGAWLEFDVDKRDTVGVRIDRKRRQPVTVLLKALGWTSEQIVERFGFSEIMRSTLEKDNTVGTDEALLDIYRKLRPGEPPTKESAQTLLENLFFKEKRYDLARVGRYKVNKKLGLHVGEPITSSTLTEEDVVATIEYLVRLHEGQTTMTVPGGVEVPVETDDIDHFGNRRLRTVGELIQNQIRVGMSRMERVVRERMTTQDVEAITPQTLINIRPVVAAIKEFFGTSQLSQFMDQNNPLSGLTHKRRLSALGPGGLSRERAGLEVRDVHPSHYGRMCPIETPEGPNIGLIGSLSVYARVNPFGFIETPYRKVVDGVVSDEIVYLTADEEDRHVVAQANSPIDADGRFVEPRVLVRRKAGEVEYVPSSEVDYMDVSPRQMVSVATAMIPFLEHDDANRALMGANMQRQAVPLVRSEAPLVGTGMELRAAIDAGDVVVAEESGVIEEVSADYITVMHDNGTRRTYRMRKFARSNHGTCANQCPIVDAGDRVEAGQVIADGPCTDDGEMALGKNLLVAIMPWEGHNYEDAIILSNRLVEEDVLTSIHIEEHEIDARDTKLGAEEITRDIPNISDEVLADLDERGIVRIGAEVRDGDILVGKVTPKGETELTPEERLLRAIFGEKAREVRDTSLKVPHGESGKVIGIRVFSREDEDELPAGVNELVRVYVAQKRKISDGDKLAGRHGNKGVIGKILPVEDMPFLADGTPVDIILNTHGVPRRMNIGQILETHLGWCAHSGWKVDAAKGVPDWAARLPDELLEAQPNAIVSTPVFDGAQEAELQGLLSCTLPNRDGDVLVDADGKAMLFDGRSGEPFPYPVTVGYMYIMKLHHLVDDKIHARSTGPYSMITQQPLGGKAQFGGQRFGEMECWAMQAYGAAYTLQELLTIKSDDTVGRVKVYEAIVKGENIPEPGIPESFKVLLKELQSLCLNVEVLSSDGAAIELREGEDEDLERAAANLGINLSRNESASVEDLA
# Chain of RNAP-SigA holoenzyme (P9WGY7 whole entry, chain 3 of 4): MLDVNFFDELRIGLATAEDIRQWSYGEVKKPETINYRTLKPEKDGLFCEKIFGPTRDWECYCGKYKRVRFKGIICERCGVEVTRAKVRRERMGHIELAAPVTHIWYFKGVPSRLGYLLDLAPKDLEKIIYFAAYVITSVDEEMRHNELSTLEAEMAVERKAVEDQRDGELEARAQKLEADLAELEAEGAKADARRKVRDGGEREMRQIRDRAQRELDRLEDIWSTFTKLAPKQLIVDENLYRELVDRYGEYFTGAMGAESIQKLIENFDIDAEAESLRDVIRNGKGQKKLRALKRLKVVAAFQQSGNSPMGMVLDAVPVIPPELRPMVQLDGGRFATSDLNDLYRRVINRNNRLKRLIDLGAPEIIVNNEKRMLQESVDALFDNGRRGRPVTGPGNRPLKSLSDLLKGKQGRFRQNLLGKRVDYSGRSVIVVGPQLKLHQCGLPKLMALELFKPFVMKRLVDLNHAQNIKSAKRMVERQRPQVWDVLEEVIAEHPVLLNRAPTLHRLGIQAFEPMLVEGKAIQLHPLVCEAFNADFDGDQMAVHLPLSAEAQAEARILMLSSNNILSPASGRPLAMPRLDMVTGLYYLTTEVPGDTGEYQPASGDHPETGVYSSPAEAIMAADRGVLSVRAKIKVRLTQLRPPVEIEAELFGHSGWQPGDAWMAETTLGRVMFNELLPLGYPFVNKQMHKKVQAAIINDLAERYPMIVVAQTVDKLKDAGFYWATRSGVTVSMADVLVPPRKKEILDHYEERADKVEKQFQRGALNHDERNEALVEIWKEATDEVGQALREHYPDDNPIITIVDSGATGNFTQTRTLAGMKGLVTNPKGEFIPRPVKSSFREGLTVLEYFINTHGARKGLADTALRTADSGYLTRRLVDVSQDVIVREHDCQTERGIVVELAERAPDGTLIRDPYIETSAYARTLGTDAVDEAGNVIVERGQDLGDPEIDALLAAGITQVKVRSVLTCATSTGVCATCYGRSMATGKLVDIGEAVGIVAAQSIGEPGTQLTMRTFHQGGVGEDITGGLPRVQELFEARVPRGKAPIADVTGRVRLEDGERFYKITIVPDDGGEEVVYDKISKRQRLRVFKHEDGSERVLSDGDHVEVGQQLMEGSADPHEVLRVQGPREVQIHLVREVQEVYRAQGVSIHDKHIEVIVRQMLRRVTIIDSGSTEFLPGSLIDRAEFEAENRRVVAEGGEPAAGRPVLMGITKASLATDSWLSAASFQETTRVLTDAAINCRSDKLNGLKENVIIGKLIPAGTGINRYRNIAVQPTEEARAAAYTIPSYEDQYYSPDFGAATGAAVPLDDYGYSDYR
# Chain of RNAP-SigA holoenzyme (P9WGI1 whole entry, chain 4 of 4): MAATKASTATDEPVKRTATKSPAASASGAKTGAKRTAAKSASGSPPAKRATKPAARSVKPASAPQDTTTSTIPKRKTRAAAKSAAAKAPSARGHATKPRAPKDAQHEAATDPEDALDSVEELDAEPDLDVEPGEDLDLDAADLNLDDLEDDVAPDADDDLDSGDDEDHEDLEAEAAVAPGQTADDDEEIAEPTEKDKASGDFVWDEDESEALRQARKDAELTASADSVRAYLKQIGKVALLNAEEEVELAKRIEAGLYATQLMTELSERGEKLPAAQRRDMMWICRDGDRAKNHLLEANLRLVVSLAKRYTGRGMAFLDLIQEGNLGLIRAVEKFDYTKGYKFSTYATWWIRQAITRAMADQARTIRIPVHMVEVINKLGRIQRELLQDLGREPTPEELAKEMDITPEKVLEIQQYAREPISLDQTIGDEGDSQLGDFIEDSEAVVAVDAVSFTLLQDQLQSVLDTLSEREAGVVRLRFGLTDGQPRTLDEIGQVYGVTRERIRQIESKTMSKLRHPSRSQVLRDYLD
binder,measurement,value
B1,binding result,binds

# Reference: PMC12170906
